Residue numbers refer to the chain shown, from its start.

B1: MA-2 鼠源抗体 (mouse IgG1 / mouse Ck) (antibody, V domains shown)
VH: EVQLQQSGAELVKPGASVKLSCTASGFNIKDTYMHWVKQRPEQGLEWIGKIDPANGNTKYDPKFQGKATITADTSSNTAYLQLSRLTSEDTAVYYCARDTTVGLDYWGQGTTLTVSS
VL: DIVLTQTPAIMSASLGEKVTMSCRASSSVNYMYWYQQKSDASPKLWIYYTSNLAPGVPARFSGSGSGNSYSLTISSMEGEDAATYYCQQFTSSPSMTFGGGTKLEIKA
B2: MA-3 鼠源抗体 (mouse IgG1 / mouse Ck) (antibody, V domains shown)
VH: EVKLEESGPELVKPGASVKISCKASGYSFTSYYIHWVKQRPGQGLEWIGWIFPGTGNTRYNEKFKGKATLTADTSSSTVYMQLSGLTSEDSAVYFCARIGGRLTGDAMDYWGQGTSVTVSS
VL: DIVLTQSTASLAVSLGQRATISCRASESVDSYGNSFMHWYQQKPGQPPKLLIYLASNLESGVPARFSGSGSRTDFTLTIDPVEADDAATYYCQQNNEDPWTFGGGTKLEIKA
B3: MA-4 鼠源抗体 (mouse IgG1 / mouse Ck) (antibody, V domains shown)
VH: QVKLEESGPGLVQPSQSLSITCTVSAFSLTTYAVHWVRQSPGKGLEWLGVIWSGGSTDYNTAFISRLNITKDNSKSQVFFKMNSLQANDTAIYYCARLDGTFFDYWGQGTTLTVSS
VL: DIVLTQTPAIMSASLGERVTMTCTASSSVSSSYLHWYQQKPGSSPKLWIYSTSNLASGVPARFSGSGSGTSYSLTISSMEAEDAATYYCHQYHRSPPTFGGGTKLEIKA
B4: MA-1 鼠源抗体 (mouse IgG1 / mouse Ck) (antibody)
heavy: EVQLQQSGAELVKPGASVKLSCTASGFNIKDTYMHWVKQRPEQGLEWIGKIDPANGNTKYDPKFQGKATITADTSSNTAYLQLSRLTSEDTAVYYCARDTTVGLDYWGQGTTLTVSSAKTTPPSVYPLAPGSAAQTNSMVTLGCLVKGYFPEPVTVTWNSGSLSSGVHTFPAVLQSDLYTLSSSVTVPSSTWPSETVTCNVAHPASSTKVDKKIVPRDCGCKPCICTVPEVSSVFIFPPKPKDVLTITLTPKVTCVVVDISKDDPEVQFSWFVDDVEVHTAQTQPREEQFNSTFRSVSELPIMHQDWLNGKEFKCRVNSAAFPAPIEKTISKTKGRPKAPQVYTIPPPKEQMAKDKVSLTCMITDFFPEDITVEWQWNGQPAENYKNTQPIMDTDGSYFVYSKLNVQKSNWEAGNTFTCSVLHEGLHNHHTEKSLSHSPG
light: DIVITQSTAIMSASLGEKVTMSCRASSSVNYMYWYQQKSDASPKLWIYYTSKLASGVPARFSGSGSGTSYSLTISSMEAEDAATYYCQQWSSNPHTFGGGTKLEIKADAAPTVSIFPPSSEQLTSGGASVVCFLNNFYPKDINVKWKIDGSERQNGVLNSWTDQDSKDSTYSMSSTLTLTKDEYERHNSYTCEATHKTSTSPIVKSFNRNEC
B5: 嵌合抗体CA-1 (antibody, human IgG4 S228P, kappa)
heavy: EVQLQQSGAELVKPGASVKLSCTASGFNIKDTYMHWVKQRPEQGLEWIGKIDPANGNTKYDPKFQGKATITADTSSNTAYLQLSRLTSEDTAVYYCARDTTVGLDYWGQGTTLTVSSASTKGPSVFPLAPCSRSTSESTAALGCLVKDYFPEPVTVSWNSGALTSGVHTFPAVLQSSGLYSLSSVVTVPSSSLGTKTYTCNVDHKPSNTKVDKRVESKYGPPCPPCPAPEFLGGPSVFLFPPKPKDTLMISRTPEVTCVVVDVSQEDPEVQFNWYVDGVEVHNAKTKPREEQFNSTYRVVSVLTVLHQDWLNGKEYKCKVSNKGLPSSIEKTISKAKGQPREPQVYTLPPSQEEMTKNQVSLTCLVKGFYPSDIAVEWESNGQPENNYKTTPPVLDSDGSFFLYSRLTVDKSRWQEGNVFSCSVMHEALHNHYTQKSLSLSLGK
light: DIVITQSTAIMSASLGEKVTMSCRASSSVNYMYWYQQKSDASPKLWIYYTSKLASGVPARFSGSGSGTSYSLTISSMEAEDAATYYCQQWSSNPHTFGGGTKLEIKRTVAAPSVFIFPPSDEQLKSGTASVVCLLNNFYPREAKVQWKVDNALQSGNSQESVTEQDSKDSTYSLSSTLTLSKADYEKHKVYACEVTHQGLSSPVTKSFNRGEC
B6: 人源化抗体HA-4 (human IgG4 / human Ck) (antibody, V domains shown)
VH: QVQLVQSGAEVKKPGASVKVSCKASGYNITDTYMHWVRQAPGQGLEWIGKIDPANGNTKYDPKFQGRATITADTSISTAYMELSRLRSDDTAVYYCARDTTVGLDYWGQGTLVTVSS
VL: DIVITQSPAFLSVTPGEKVTITCRASSSVNYMYWYQQKPDASPKLWIYYTSKLASGVPSRFSGSGSGTDYTFTISSLEAEDAATYYCQQWSSNPHTFGGGTKVEIKR
B7: 人源化抗体HA-5 (human IgG4 / human Ck) (antibody, V domains shown)
VH: B6 VH with T30K, R38K, R67K
VL: B6 VL with S59A, D69S
B8: 人源化抗体HA-1 (human IgG4 / human Ck) (antibody, V domains shown)
VH: B6 VH with N28T, I29F
VL: B6 VL
B9: 人源化抗体HA-3 (human IgG4 / human Ck) (antibody, V domains shown)
VH: B6 VH
VL: B6 VL with A41Q, S42A, W46L
B10: 人源化抗体HA-2 (human IgG4 / human Ck) (antibody, V domains shown)
VH: B6 VH with N28T, I29F
VL: B6 VL with A41Q, S42A, W46L

The target of the first assay is T1, LAG-3 (human, UniProt P18627 23-450, limits assumed).
T1 sequence (looked up): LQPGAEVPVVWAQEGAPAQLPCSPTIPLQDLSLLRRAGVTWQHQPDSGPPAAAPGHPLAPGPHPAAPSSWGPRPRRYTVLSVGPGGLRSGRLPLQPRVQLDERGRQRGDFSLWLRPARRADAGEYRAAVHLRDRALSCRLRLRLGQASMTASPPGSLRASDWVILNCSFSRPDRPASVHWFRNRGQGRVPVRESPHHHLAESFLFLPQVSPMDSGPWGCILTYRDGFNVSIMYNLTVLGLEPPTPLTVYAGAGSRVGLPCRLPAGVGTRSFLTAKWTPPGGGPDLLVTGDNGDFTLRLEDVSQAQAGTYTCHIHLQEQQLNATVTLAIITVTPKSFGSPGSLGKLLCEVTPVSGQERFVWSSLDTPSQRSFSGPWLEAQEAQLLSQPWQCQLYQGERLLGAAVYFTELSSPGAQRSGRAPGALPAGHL
Description: cell-based or functional assay.
On to B1, for which the “EC50 of IL-2 secretion in mixed lymphocyte reaction (CD4+ T cells + DC, 5 days)” value is 0.03 µg/mL. The same measure, in the same setting: with B2 the figure was 0.076 µg/mL; with B3, 0.121 µg/mL; with B4, 0.024 µg/mL.

The target in a further assay is T1, LAG-3. The assay is described as follows: cell-based or functional assay. This is another data set of the same source.
For B5, the “EC50 of T cell proliferation (CCK8) in mixed lymphocyte reaction” value (“EC50 of T cell proliferation (CCK8)” below) came to 0.00723 µg/mL. Turning to B6, the “EC50 of T cell proliferation (CCK8)” value stood at 0.0338 µg/mL.

For the molecule B7, the “EC50 of T cell proliferation (CCK8)” value came out at 0.0318 µg/mL. Same read-out and setting: the figure for B8 is 0.00688 µg/mL; for B9 it is 0.015 µg/mL; for B10 it is 0.0271 µg/mL.

Values taken from patent CN114617961A (BEIJING ORIENTAL BAITAI BIOTECHNOLOGY CO LTD; BEIJING …, dated 2022).
